Source: US20250250355A1 (BIOSION, published 2025)
Read-outs that look alike come from different tables or passages of the source.

Experiments:
human SIRPα-his protein = human SIRPα-his protein (human, UniProt P78324 31-370); assay: competitive ELISA on coated human SIRPα-his; blocked ligand: biotin-labeled human CD47-his, OD(450-630)
[1] = biological target: T1, full length human SIRPα on cell membranes (HEK293-SIRPα cells; 293F-SIRPα cells) (human, UniProt P78324 31-504); assay: cell based binding FACS on 293F cells expressing human SIRPα, MFI
T1 construct: whole, on cells; also called cell surface human SIRPα; cell surface SIRPα

[2] = biological target: T2, full length human SIRPγ endogenously expressed on Jurkat cells (human, UniProt Q9P1W8 29-387); assay: cell based binding FACS on Jurkat cells (endogenous human SIRPγ), MFI; curve not visible in the scan
T2 construct: whole, on cells; also called human SIRPγ expressed on Jurkat cells

[3] = biological target: T3, human SIRPα-V8-his protein (human, UniProt P78324 31-370, limits assumed); assay: indirect ELISA on coated human SIRPα-V8-his, OD(450-630); curve not visible in the scan
[4] = biological target: T1, full length human SIRPα on cell …; assay: cell based blocking FACS on 293F-SIRPα cells; blocked ligand: human CD47 protein (CD47-Fc), MFI
[5] = biological target: T1, full length human SIRPα on cell …; assay: as above; remark: listed apart in the source
[6] = biological target: T3, human SIRPα-V8-his protein; assay: indirect ELISA on coated human SIRPα-V8-his, OD(450-630)
[7] = biological target: T2, full length human SIRPγ endogenously …; assay: cell based binding FACS on Jurkat cells (endogenous human SIRPγ), MFI; plateau at MFI about 330
[8] = biological target: T4, recombinant human SIRPα-Fc protein (human, biotin-labeled (sites not given)); assay: capture ELISA, antibody captured on anti-mouse IgG F(ab')2, biotin-labeled human SIRPα-Fc in solution, OD(450-630)
T4 construct: also called biotin-labeled human SIRPα-Fc protein

[9] = biological target: T5, full length human SIRPβ on cell membranes (HEK293-SIRPβ cells; 293F cells expressing human SIRPβ) (human, UniProt O00241 30-398); assay: cell based binding FACS on 293F cells expressing human SIRPβ, MFI
T5 construct: whole, on cells; also called cell surface human SIRPβ

[10] = biological target: T5, full length human SIRPβ on cell …; assay: as above; remark: listed apart in the source
[11] = biological target: human SIRPα-isoform 2-his protein (human); assay: indirect ELISA on coated human SIRPα-isoform 2-his, OD(450-630)
[12] = biological target: human SIRPα-isoform 2-his protein (human); assay: indirect ELISA on coated human SIRPα-isoform 2-his, OD(450-630); plateau at OD about 1.0
[13] = biological target: human SIRPα-isoform 2-his protein (human); assay: indirect ELISA on coated human SIRPα-isoform 2-his, OD(450-630); remark: listed apart in the source
[14] = biological target: T5, full length human SIRPβ on cell …; assay: cell based binding FACS on HEK293-SIRPβ cells, MFI; curve not visible in the scan
[15] = biological target: T6, human SIRPα protein (soluble, used on 293F-CD47 cells) (human, UniProt P78324 31-370, limits assumed); assay: cell based blocking FACS on 293F-CD47 cells; soluble human SIRPα protein blocked from binding cell surface human CD47, MFI
[16] = biological target: T2, full length human SIRPγ endogenously …; assay: cell based binding FACS on Jurkat cells (endogenous human SIRPγ), MFI; plateau at MFI about 325
mouse SIRPα-his = biological target: T7, mouse SIRPα-his (mouse, UniProt P97797 35-363, limits assumed); assay: indirect ELISA on coated mouse SIRPα-his, OD(450-630)
T7 chain: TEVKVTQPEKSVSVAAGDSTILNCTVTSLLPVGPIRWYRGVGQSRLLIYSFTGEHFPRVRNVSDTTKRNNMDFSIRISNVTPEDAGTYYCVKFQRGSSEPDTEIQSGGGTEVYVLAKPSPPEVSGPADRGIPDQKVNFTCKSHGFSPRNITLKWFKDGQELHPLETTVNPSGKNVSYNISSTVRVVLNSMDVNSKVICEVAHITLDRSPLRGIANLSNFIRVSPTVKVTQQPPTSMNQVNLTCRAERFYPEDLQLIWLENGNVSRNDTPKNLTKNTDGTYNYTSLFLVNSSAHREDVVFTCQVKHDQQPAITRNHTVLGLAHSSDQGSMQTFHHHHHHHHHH

[17] = biological target: T6, human SIRPα protein (soluble, used on …); assay: cell based blocking FACS on 293F-CD47 cells; soluble human SIRPα protein blocked from binding cell surface human CD47, MFI; remark: listed apart in the source
[18] = biological target: T1, full length human SIRPα on cell …; assay: cell based binding FACS on 293F cells expressing human SIRPα, MFI; remark: listed apart in the source
[19] = biological target: T1, full length human SIRPα on cell …; assay: cell based binding FACS on HEK293-SIRPα cells, MFI; curve not visible in the scan

B1: KWAR23 (antibody, human IgG4 S228P, kappa, V domains shown)
VH: EVQLQQSGAELVKPGASVKLSCTASGFNIKDYYIHWVQQRTEQGLEWIGRIDPEDGETKYAPKFQDKATITADTSSNTAYLHLSSLTSEDTAVYYCARWGAYWGQGTLVTVSA
VL: QIVLTQSPAIMSASPGEKVTLTCSASSSVSSSYLYWYQQKPGSSPKLWIYSTSNLASGVPARFSGSGSGTSYSLTISSMEAEDAASYFCHQWSSYPRTFGAGTKLELKR
notes: also called BM
- IC50 (human SIRPα-his protein): 2000 pM
- EC50 [1]: 307 pM
- EC50 [2]: 10.2 pM
- EC50 [3]: 339 pM
- IC50 [4]: 730 pM
- IC50 [5]: 753 pM
- EC50 [6]: 255 pM
- EC50 [7]: 7.25 pM
- EC50 [8]: 77.4 pM
- EC50 [9]: 164 pM
- EC50 [10]: 156 pM
- EC50 [11]: 308 pM
- EC50 [12]: 436 pM
- EC50 [13]: 409 pM
- EC50 [14]: 272 pM
- IC50 [15]: 241 pM
- EC50 [16]: 7.61 pM
- binding result (mouse SIRPα-his): no binding (tested: ~67 nM)
- IC50 [17]: 250 pM
- EC50 [18]: 310 pM
- EC50 [19]: 383 pM
